This note sets out measurements from patent US20190300616A1 (UNIVERSITY OF CHICAGO, published 2019).

In one assay the target is T1, *41BB.z.
T1 construct: also called M47 IL13Ra2 - SH - TM* (CD8a) - 41BB - ζ-chain CAR on T cells
The assay is described as follows: flow cytometry of transduced T cells stained with IL13Rα2Fc and secondary antibody, axis labelled CAR. In general terms: Flow cytometry measures light scatter and fluorescence of single cells or particles in a stream.

The target in a further assay is T2, CD28.OX40.z.
T2 construct: also called M47 IL13Ra2 - SH - TM - CD28 - OX40 - ζ-chain CAR on T cells
Described as above.

For assay [1], the target named is T3, recombinant mouse IL13Rα2hFc chimera (mouse, UniProt O88786 22-334, limits assumed).
T3 construct: Bought from R&D Systems; also called mouse rIL13Rα2; mouse recombinant IL13Rα2; not shown: human Fc (hFc) of the purchased chimera
T3 sequence (looked up): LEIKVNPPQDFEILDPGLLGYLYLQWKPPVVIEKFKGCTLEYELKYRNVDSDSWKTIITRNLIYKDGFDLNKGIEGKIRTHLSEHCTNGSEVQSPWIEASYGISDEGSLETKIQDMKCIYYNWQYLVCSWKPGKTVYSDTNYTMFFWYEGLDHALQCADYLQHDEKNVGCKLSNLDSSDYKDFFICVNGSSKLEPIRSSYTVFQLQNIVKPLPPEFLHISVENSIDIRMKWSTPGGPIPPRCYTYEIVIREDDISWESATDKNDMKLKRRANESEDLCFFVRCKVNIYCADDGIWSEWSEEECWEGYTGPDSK
The assay is described as follows: plate-bound ELISA on mouse rIL13Rα2hFc. A general note: ELISA stands for enzyme-linked immunosorbent assay.

Assay [2] addresses T4, recombinant human IL13Rα1hFc chimera (human, UniProt P78552 27-343, limits assumed).
T4 construct: Bought from R&D Systems; also called rhIL13Rα1; hrIL13Rα1; not shown: human Fc (hFc) of the purchased chimera
T4 sequence (looked up): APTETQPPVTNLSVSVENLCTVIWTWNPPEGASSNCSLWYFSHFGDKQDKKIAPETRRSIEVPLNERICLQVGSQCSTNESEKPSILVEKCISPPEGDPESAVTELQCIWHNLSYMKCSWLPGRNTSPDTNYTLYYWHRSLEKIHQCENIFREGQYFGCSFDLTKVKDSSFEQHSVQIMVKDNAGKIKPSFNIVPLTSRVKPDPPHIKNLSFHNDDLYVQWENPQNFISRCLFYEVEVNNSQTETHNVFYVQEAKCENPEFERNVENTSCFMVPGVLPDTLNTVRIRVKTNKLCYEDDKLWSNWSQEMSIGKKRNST
In words: plate-bound ELISA on IL13Rα1hFc.

B1: recombinant human IL13Rα2hFc chimera (Fc fusion, UniProt Q14627 27-343, looked up)
chain: DTEIKVNPPQDFEIVDPGYLGYLYLQWQPPLSLDHFKECTVEYELKYRNIGSETWKTIITKNLHYKDGFDLNKGIEAKIHTLLPWQCTNGSEVQSSWAETTYWISPQGIPETKVQDMDCVYYNWQYLLCSWKPGIGVLLDTNYNLFYWYEGLDHALQCVDYIKADGQNIGCRFPYLEASDYKDFYICVNGSSENKPIRSSYFTFQLQNIVKPLPPVYLTFTRESSCEIKLKWSIPLGPIPARCFDYEIEIREDDTTLVTATVENETYTLKTTNETRQLCFVVRSKVNIYCSDDGIWSEWSDKQCWEGEDLSKKTLLR
notes: Bought from R&D Systems; also called rhIL13Rα2hFc; rhIL13Rα2; not shown: human Fc (hFc) of the purchased chimera
With B1, the binding result with *41BB.z and with CD28.OX40.z was “binds” in each case.

B2: IL13Rα2 (clone 47) mAb (antibody, V domains shown)
VH: QVQLQQPGAELVRPGASVKLSCKASGYTFSNYLMNWVKQRPEQDLDWIGRIDPYDGDIDYNQNFKDKAILTVDKSSSTAYMQLSSLTSEDSAVYYCARGYGTAYGVDYWGQGTSVTVSS
VL: not shown
notes: Mouse hybridoma antibody; mIgG1 was used as isotype control; also called mAb47; m47
Take B2: the binding result in assay [1] is on record as “no binding”; in assay [2], “no binding (tested: 4 µg/ml)”.
